Test results reported in publication PMC5116672.

B1: CD147: N152Q (protein)
parent chain: MAAALFVLLGFALLGTHGASGAAGTVFTTVEDLGSKILLTCSLNDSATEVTGHRWLKGGVVLKEDALPGQKTEFKVDSDDQWGEYSCVFLPEPMGTANIQLHGPPRVKAVKSSEHINEGETAMLVCKSESVPPVTDWAWYKITDSEDKALMNGSESRFFVSSSQGRSELHIENLNMEADPGQYRCNGTSSKGSDQAIITLRVRSHLAALWPFLGIVAEVLVLVTIIFIYEKRRKPEDVLDDDDAGSAPLKSSGQHQNDKGKNVRQRNSS
B2: CD147: castanospermine (CAS) 24 h (protein)
parent chain: B1 parent chain
B3: CD147: N152/186Q (protein)
parent chain: B1 parent chain
B4: CD147: N44/186Q (protein)
parent chain: B1 parent chain
B5: CD147: castanospermine (CAS) 12 h (protein)
parent chain: B1 parent chain
B6: CD147: N44/152Q (protein)
parent chain: B1 parent chain
B7: CD147: N186Q (protein)
parent chain: B1 parent chain
B8: CD147: N44/152/186Q (protein)
parent chain: B1 parent chain
B9: CD147: N44Q (protein)
parent chain: B1 parent chain
B10: CD147: castanospermine (CAS) 12 h on N44/186Q (protein)
parent chain: B1 parent chain

Legend:
[1] = immunofluorescence colocalisation with chaperones; conditions: glycan lost; control: CD147(WT)-EGFP
[2] = protein accumulation on Gp78 siRNA, immunoblot; conditions: glycan lost; control: CD147(WT)-EGFP
[3] = confocal immunofluorescence with ER-Tracker, stable cells; conditions: glycan lost; control: CD147(WT)-EGFP
[4] = anti-EGFP immunoblot of total lysates; mRNA unchanged; conditions: glycan lost; control: CD147(WT)-EGFP
[5] = immunofluorescence, aggregation with GRP78, 24 h castanospermine; conditions: glycan changed form; control: CD147(WT)-EGFP cells without CAS
[6] = confocal immunofluorescence with ER-Tracker, transient double mutants; conditions: glycan lost; control: CD147(WT)-EGFP
[7] = immunofluorescence with CNX, 12 h castanospermine; conditions: glycan changed form

| Protein | localisation_or_trafficking [3] | localisation_or_trafficking [6] | other results |
| --- | --- | --- | --- |
| B1 | changes |  | localisation_or_trafficking [1]: increases; degradation_or_half_life [2]: decreases; expression_or_secretion [4]: decreases |
| B2 |  |  | stability_or_folding [5]: decreases |
| B3 |  | changes |  |
| B4 |  | no change |  |
| B5 |  |  | localisation_or_trafficking ([7]; control: CD147(WT)-EGFP cells without CAS): changes |
| B6 |  | changes |  |
| B7 | changes |  |  |
| B8 | changes |  | expression_or_secretion [4]: decreases |
| B9 | changes |  |  |
| B10 |  |  | localisation_or_trafficking ([7]; control: CD147(N44/186Q)-EGFP cells without CAS): changes |
